Experimental data as given in patent US20210198650A1 (NIBEC, published 2021).

T1: cadherin6 (CDH6)-fc fusion protein (UniProt P55285 54-615, limits assumed)
T1 construct: Immobilised on a carboxymethyl dextran SPR chip; also called K-cadherin
T1 sequence (looked up): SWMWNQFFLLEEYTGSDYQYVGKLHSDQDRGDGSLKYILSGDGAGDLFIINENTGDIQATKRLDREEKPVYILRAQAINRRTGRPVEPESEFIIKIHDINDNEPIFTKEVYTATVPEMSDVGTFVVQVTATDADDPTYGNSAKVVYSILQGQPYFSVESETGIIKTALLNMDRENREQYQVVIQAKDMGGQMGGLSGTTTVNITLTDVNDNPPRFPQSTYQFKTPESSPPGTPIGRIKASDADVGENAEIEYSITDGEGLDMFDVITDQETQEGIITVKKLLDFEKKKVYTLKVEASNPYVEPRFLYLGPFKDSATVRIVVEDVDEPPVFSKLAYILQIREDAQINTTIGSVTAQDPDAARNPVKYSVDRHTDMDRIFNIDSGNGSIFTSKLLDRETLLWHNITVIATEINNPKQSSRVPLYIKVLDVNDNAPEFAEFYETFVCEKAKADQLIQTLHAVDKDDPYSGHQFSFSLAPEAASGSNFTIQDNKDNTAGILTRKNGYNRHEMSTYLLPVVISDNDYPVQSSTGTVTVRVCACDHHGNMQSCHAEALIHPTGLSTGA

B1: GRS-DP polypeptide (GRS 531-600 aa) (peptide)
peptide: MYTVFEHTFHVREGDEQRTFFSFPAVVAPFKCSVLPLSQNQEFMPFVKELSEALTRHGVSHKVDDSSGSI
notes: Linear truncated GRS fragment; also called GRS-DP peptide
B2: GRS-DP-A cyclic (peptide)
peptide: CYTVFEHTFHVREGDEQRTFFSFPC
modifications: cyclic form: "monosulfide linkage" formed between the cysteine residues at the opposite termini (Cys 1 and Cys 25)
notes: Cyclised by spontaneous reaction at pH 8; 3.083 kDa; also called GRS-DP-A cyclic variant

Biological target: T1, cadherin6 (CDH6)-fc fusion protein
Experiment: SPR, CDH6-Fc immobilised on carboxymethyl dextran chip, peptide injected
Experimental: Comparison was made of the affinity of the peptides of the present invention for CDH6. The binding of GRS and GRS-derived peptides to cadherin6 (CDH6)-fc fusion protein was analyzed by surface plasmon resonance (SPR) using SR7500DC, Reichert Analytical Instrument (Depew NY). CDH6 was immobilized on a [CMDH chip] carboxymethyl dextran sensor chip via a free carboxyl group on the surface thereof, followed by injecting 0.1M 1-ethyl-3-(3-dimethylaminopropyl) carbodiimide hydrochloride and 0.05M N-hydroxysuccinimide at a flow speed of 5 μL/min to give an activated succinimide ester-modified surface. Various concentrations of GRS and GRS-derived peptides were injected at a flow speed of 30 μL/min into phosphate-based saline, after which a mobile-phase buffer was injected at the same flow speed to determine a dissociation rate. Data was analyzed using Software Scrubber 2.0 (Biological Software, Australia).

| Kd | Binder |
| --- | --- |
| 83.9 nM | B1 |
| 61.2 nM | MYTVFEHTFHVREGDEQRTFFSFPA (Linear 25-mer, 3.079 kDa) [GRS-DP-A linear (GRS 531-555 aa)] |
| 51.3 nM | B2 |
